This note sets out measurements from patent US20230296611A1 (INNATE PHARMA, published 2023).

Assay [1] addresses T1, human MICA*008 (human, UniProt Q29983 24-297).
T1 construct: C1R-neo cells transfected with human MICA*008, formalin fixed and paraffin embedded (or live cells for flow cytometry); transmembrane and cytoplasmic parts are not in the entry; also called C1R MICA*008 cells
T1 chain: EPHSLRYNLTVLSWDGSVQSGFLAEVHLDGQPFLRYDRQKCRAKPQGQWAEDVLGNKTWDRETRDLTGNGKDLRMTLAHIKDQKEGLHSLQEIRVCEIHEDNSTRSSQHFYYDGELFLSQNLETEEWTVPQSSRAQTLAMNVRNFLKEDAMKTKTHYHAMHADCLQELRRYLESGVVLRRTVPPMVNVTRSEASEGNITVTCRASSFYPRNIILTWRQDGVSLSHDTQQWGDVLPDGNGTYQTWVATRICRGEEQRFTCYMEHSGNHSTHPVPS
Put plainly: IHC with hybridoma supernatant on FFPE C1R MICA*008 cell pellet, Ventana, CC1 or CC2. The procedure:
(§1) In parallel to the phenotyping by flow cytometry, the cell lines were fixed in formalin and embedded in paraffin. Briefly, 20×10⁶ to 40×10⁶ cells were fixed for 1 hour with formalin 4%. The cells were washed twice in PBS, and there were resuspended in Histogel. The cell pellets were dehydrated and embedded in paraffin. For each cell line, several FFPE cell pellets were made A mix of cells (C1R MICA*008 (15.10⁶ cells) and C1R MICB (15.10⁶ cells)) was also were embedded in paraffin. Sectioning of FFPE cell pellets was performed and MICA/B staining done by IHC. Briefly, 5 μm-thick sections were incubated dewaxed, submitted to an antigen retrieval step and incubated with immune or non-immune sera, hybridoma supernatants, chain combinations Abs or purified and commercial Abs followed by a signal amplification step. Enzymatic revelation was finally performed using 3, 3′-diaminobenzidine (DAB). For the IHC stainings with the mouse sera, staining interpretation was done by attributing a percentage of stained cells in the pellet section as well as an intensity score using the following criterion: “−”: negative staining; “+”: weak positive staining; “++”: intermediate IHC signal in intensity and “+++”: strong positive staining. […]

Assay [2] has as its target T2, human MICA*001 (human, UniProt Q29983 24-297).
T2 construct: C1R-neo cells transfected with human MICA*001, formalin fixed and paraffin embedded (or live cells for flow cytometry); also called C1R MICA*001 cells
T2 sequence: T1 chain with A24T, Y36C, E125K, V129M, E173K, S206G, R210W, I213T, T215S, R251Q
Put plainly: IHC with hybridoma supernatant on FFPE C1R MICA*001 cell pellet, Ventana, CC1 or CC2. The procedure:
as §1

Changes are numbered by the printed parent chain.

B1: antibody 12C9 (antibody, V domains shown)
VH: EIQLQQSGPELEKPGASVKISCKASGYAFTGYYMNWMKQRNGKSLDWIGTINPYYGSSTYNQKFKGKATLTVDESSSTAYMQLTSLTSEDSAVYYCARVDGDHGYFDYWGRGTTLTVSS
VL: DVVMTQTPLSLPVSLGDQASISCRSSQSLVHSNGNTYLHWYLQKPGQSPKLLIYKVSTRFSGVPDRFSGSGSGTDFTLKISRVEAEDLGVYFCSQSTHVPFTFGSGTKLEIK
notes: Produced as a mouse antibody with mouse gamma1 chain (mIgG1 isotype)
With B1, the binding result in assay [1] and in assay [2] was “binds” in each case.
